The target of this assay is human DC-SIGN (CD209), expressed on 293T cells (human) (UniProt Q9NNX6). In words: cell-based or functional assay.
Chain of UniProt Q9NNX6 (Q9NNX6 whole entry): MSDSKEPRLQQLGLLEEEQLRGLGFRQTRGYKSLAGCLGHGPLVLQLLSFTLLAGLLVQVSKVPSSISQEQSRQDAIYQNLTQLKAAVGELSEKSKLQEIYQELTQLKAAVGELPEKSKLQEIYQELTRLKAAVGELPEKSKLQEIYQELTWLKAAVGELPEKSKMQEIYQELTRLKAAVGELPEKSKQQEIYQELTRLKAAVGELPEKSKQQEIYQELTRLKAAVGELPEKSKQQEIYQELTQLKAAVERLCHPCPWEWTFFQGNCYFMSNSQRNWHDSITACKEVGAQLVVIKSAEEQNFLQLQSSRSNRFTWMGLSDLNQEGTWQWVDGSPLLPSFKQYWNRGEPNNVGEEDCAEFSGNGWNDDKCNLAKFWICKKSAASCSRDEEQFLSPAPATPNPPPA

For the substance “Sindbis virus HR strain envelope E2 glycoprotein, on pseudotyped lentiviral vector particles (from UniProt P03316 329-751)”, the GFU/mL on 293-hDC-SIGN cells (transduction titer) came out at 6.4e+06 GFU/mL and the Ratio (GFU/mL on 293-hDC-SIGN cells over 293T cells) was 9.4.

Regarding “VSV-G envelope glycoprotein, on pseudotyped lentiviral vector particles (from UniProt P03522 17-511)”, the GFU/mL on hDC-SIGN cells (transduction titer) amounted to 1.35e+08 GFU/mL and the Ratio (GFU/mL on hDC-SIGN cells over 293T cells) was determined as 1.19.

The values above are taken from patent US20120039932A1.
